Laboratory results published in the supplement of paper PMC7877785.
± gives the uncertainty stated by the source.

Test: self-splicing fitness, log relative to wild type (ln ratio); higher = more splicing; Tetrahymena group I intron in knt gene, E. coli kanamycin selection, DiMSum; sequences stand for … in CUCUCU…GGAGGGAAAAGUUAUCAGGCAUGCACCUGGUAGCUAGUCUUUAAACCAAUAGAUUGCAUCGGUUUAAAAGGCAAGACCGUCAAAUUGCGGGAAAGGGGUCAACAGCCGUUCAGUACCAAGUCUCAGGGGAAACUUUGAGAUGGCCUUGCAAAGGGUAUGGUAAUAAGCUGACGGACAUGGUCCUAACCACGCAGCCAAGUCCUAAGUCAACAGAUCUUCUGUUGAUAUGGAUGCAGUUCACAGACUAAAUGUCGGUCGGGGAAGAUGUAUUCUUCUCAUAAGAUAUAGUCGGACCUCUCCUUAAUGGGAGCUAGCGGAUGAAGUGAUGCAACACUGGAGCCGCUGGGAACUAAUUUGUAUGCGAAAGUAUAUUGAUUAGUUUUGGAGUACUCGUGGUCG
Summary of the method: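 Fitness was computed with DiMSum as the error-weighted combination of replicate fold changes, kanamycin versus none, each normalised to wild type. The library randomised all eight intron nucleotides of the P1ex region, with the intron placed in the knt kanamycin-resistance gene on pET-22b(+) in E. coli BL21(DE3). Six replicate transformations were grown overnight at 37°C or 30°C on LB agar with or without 25 μg/mL kanamycin, plus 100 μg/mL carbenicillin, 50 μM IPTG and 0.2% rhamnose. Pooled colonies were amplicon-sequenced on an Illumina HiSeq 2500.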

Sequence | self-splicing fitness (ln) (30 °C) | self-splicing fitness (ln) (37 °C)
UUAGAGCAAUAUUACGUCUA | -0.712 ± 0.071 | -0.109 ± 0.11
UUAAAGCAAUAUUACGGUAA | -0.33 ± 0.076 | 0.503 ± 0.1
CGGCAGCAAUAUUACGGCUA | -0.121 ± 0.07 | 0.407 ± 0.096
AGUGAGCAAUAUUACGUCGG | -3.07 ± 0.31 | -1.97 ± 0.36
GACUAGCAAUAUUACGUGCA | -0.898 ± 0.059 | -0.504 ± 0.068
GGGUAGCAAUAUUACGAAUA | -0.00785 ± 0.18 | -0.878 ± 0.18
CCUUAGCAAUAUUACGGGCA | -3.91 ± 0.33 | -3.36 ± 0.35
AGAGAGCAAUAUUACGUUCA | -2.39 ± 0.22 | -1.81 ± 0.22
UAAGAGCAAUAUUACGGGAC | -2.98 ± 0.38 | -1.86 ± 0.33
GCCCAGCAAUAUUACGAUAC | -2.24 ± 0.086 | -0.313 ± 0.094
AGUCAGCAAUAUUACGAAAU | -1.76 ± 0.078 | -0.398 ± 0.094
GAGCAGCAAUAUUACGCGAG | -2.38 ± 0.14 | -0.876 ± 0.12
ACCCAGCAAUAUUACGCUAU | -0.847 ± 0.066 | -0.75 ± 0.08
CGCCAGCAAUAUUACGCCAA | -1.59 ± 0.23 | -2.02 ± 0.46
GUGCAGCAAUAUUACGCGAA | -1.62 ± 0.1 | -0.106 ± 0.085
AUAUAGCAAUAUUACGGUGU | -2.03 ± 0.16 | -1.38 ± 0.17
AUUAAGCAAUAUUACGUCUU | -0.854 ± 0.091 | -0.387 ± 0.11
CGAGAGCAAUAUUACGCAUU | -2.84 ± 0.24 | -2.33 ± 0.21
UAGGAGCAAUAUUACGGCAU | -4.07 ± 0.39 | -1.5 ± 0.25
GAUAAGCAAUAUUACGAUCA | -1.33 ± 0.1 | -0.134 ± 0.1
CAUCAGCAAUAUUACGGGAA | -2.53 ± 0.21 | -1.68 ± 0.17
UCUUAGCAAUAUUACGAAUA | -3.59 ± 0.47 | -0.936 ± 0.17
AAGCAGCAAUAUUACGGUGU | -1.85 ± 0.09 | -0.979 ± 0.12
UUGAAGCAAUAUUACGUUAG | -0.587 ± 0.1 | 0.138 ± 0.12
AUGAAGCAAUAUUACGCACU | 0.079 ± 0.14 | 0.992 ± 0.22
UUGCAGCAAUAUUACGGAAG | -3.02 ± 0.34 | -0.414 ± 0.14

Sequence | self-splicing fitness (ln) (30 °C) | self-splicing fitness (ln) (37 °C)
GAGUAGCAAUAUUACGUAUU | -3.24 ± 0.16 | -1.79 ± 0.11
UGAAAGCAAUAUUACGUUCC | -1.36 ± 0.11 | -0.98 ± 0.13
GGCCAGCAAUAUUACGGCUG | -1.41 ± 0.12 | -0.562 ± 0.2
UAGAAGCAAUAUUACGGCUU | -3.59 ± 0.48 | -1.67 ± 0.23
GUUGAGCAAUAUUACGGAUC | -1.91 ± 0.14 | -1.16 ± 0.14
GGACAGCAAUAUUACGGCAU | -0.228 ± 0.053 | 0.0818 ± 0.068
UGACAGCAAUAUUACGGCGG | -0.935 ± 0.053 | 0.0557 ± 0.072
GGAAAGCAAUAUUACGAGAU | -2.44 ± 0.17 | -2.17 ± 0.29
UCUGAGCAAUAUUACGCUAU | -3.8 ± 0.22 | -3.15 ± 0.28
GCAAAGCAAUAUUACGAAGU | -3.24 ± 0.16 | -1.22 ± 0.11
CCGCAGCAAUAUUACGGUAA | -3.69 ± 0.27 | -1.99 ± 0.18
CUCUAGCAAUAUUACGUCGA | -4.25 ± 0.42 | -0.879 ± 0.19
ACUAAGCAAUAUUACGCCAC | -2.45 ± 0.38 | –
AUGUAGCAAUAUUACGACGG | -2.09 ± 0.18 | -1.5 ± 0.17
CGGCAGCAAUAUUACGUGAG | -0.694 ± 0.041 | -0.055 ± 0.069
GGGCAGCAAUAUUACGUGCU | -3.46 ± 0.22 | -2.16 ± 0.25
UACGAGCAAUAUUACGACAU | -3.899 ± 0.031 | -2.47 ± 0.04
GUCCAGCAAUAUUACGCUUU | -0.441 ± 0.06 | 0.678 ± 0.076
UUUGAGCAAUAUUACGUAUG | -1.73 ± 0.16 | -2.59 ± 0.24
GCGCAGCAAUAUUACGCCCA | 0.169 ± 0.24 | -0.637 ± 0.33
UCCCAGCAAUAUUACGCCUC | -3.11 ± 0.23 | -1.98 ± 0.29
AGGAAGCAAUAUUACGAUAA | -1.9 ± 0.21 | -1.33 ± 0.29
GAACAGCAAUAUUACGGCCC | -0.734 ± 0.27 | -0.265 ± 0.28
ACCCAGCAAUAUUACGGACA | -0.0478 ± 0.08 | -0.181 ± 0.089
CCAAAGCAAUAUUACGAUGA | -2.55 ± 0.12 | -1.34 ± 0.09
CCAUAGCAAUAUUACGCACG | -0.758 ± 0.081 | -0.715 ± 0.1

Sequence | self-splicing fitness (ln) (30 °C) | self-splicing fitness (ln) (37 °C)
GUAUAGCAAUAUUACGGUAC | – | -2.25 ± 0.33
GCUCAGCAAUAUUACGAGCU | -1.77 ± 0.2 | -2.27 ± 0.35
GAUUAGCAAUAUUACGAAGG | -3.53 ± 0.43 | -1.8 ± 0.35
GACUAGCAAUAUUACGUCCC | -1.82 ± 0.23 | -0.833 ± 0.22
GGGCAGCAAUAUUACGAUCG | -0.913 ± 0.098 | 0.377 ± 0.15
CCCAAGCAAUAUUACGAGCC | -3.79 ± 0.4 | -2.79 ± 0.44
UCGCAGCAAUAUUACGAUGG | -0.799 ± 0.061 | -0.226 ± 0.084
ACUUAGCAAUAUUACGGACA | -1.46 ± 0.14 | -0.798 ± 0.14
AAUGAGCAAUAUUACGUAGU | -3.83 ± 0.22 | -2.22 ± 0.21
UUGCAGCAAUAUUACGGUGC | -3.79 ± 0.26 | -2.67 ± 0.26
GGAAAGCAAUAUUACGGAAU | -2.55 ± 0.16 | -1.1 ± 0.15
AUUUAGCAAUAUUACGCAUU | -1.7 ± 0.11 | -0.617 ± 0.13
UAUAAGCAAUAUUACGGACA | -0.702 ± 0.11 | 0.416 ± 0.13
UCACAGCAAUAUUACGGGGU | -3.58 ± 0.14 | -2.67 ± 0.18
CUCGAGCAAUAUUACGAAGU | -3.64 ± 0.43 | -1.84 ± 0.35
CCACAGCAAUAUUACGCGGG | -3.14 ± 0.12 | -2.77 ± 0.16
CGUGAGCAAUAUUACGCCGU | – | -1.1 ± 0.25
GUGUAGCAAUAUUACGCCAG | – | -1.12 ± 0.5
CCCUAGCAAUAUUACGGAAG | -4.09 ± 0.22 | -2.02 ± 0.19
GUACAGCAAUAUUACGGUAU | -4.07 ± 0.18 | -2.45 ± 0.16
GUGAAGCAAUAUUACGUAAC | -1.99 ± 0.26 | -1.23 ± 0.31
CUACAGCAAUAUUACGUGAA | -4.26 ± 0.19 | -2.08 ± 0.17
ACUCAGCAAUAUUACGAAGC | -1.99 ± 0.19 | -1.46 ± 0.16
GCGAAGCAAUAUUACGAUAG | -2.35 ± 0.14 | -1.51 ± 0.17
